The target in this assay is T1, CD45 (receptor-type tyrosine-protein phosphatase C, PTPRC) (Homo sapiens, UniProt P08575 26-1306).
T1 construct: In the lysis assays CD45 is the endogenous protein on human PBMCs or NK92 effector cells; also called all isoforms of CD45
T1 sequence: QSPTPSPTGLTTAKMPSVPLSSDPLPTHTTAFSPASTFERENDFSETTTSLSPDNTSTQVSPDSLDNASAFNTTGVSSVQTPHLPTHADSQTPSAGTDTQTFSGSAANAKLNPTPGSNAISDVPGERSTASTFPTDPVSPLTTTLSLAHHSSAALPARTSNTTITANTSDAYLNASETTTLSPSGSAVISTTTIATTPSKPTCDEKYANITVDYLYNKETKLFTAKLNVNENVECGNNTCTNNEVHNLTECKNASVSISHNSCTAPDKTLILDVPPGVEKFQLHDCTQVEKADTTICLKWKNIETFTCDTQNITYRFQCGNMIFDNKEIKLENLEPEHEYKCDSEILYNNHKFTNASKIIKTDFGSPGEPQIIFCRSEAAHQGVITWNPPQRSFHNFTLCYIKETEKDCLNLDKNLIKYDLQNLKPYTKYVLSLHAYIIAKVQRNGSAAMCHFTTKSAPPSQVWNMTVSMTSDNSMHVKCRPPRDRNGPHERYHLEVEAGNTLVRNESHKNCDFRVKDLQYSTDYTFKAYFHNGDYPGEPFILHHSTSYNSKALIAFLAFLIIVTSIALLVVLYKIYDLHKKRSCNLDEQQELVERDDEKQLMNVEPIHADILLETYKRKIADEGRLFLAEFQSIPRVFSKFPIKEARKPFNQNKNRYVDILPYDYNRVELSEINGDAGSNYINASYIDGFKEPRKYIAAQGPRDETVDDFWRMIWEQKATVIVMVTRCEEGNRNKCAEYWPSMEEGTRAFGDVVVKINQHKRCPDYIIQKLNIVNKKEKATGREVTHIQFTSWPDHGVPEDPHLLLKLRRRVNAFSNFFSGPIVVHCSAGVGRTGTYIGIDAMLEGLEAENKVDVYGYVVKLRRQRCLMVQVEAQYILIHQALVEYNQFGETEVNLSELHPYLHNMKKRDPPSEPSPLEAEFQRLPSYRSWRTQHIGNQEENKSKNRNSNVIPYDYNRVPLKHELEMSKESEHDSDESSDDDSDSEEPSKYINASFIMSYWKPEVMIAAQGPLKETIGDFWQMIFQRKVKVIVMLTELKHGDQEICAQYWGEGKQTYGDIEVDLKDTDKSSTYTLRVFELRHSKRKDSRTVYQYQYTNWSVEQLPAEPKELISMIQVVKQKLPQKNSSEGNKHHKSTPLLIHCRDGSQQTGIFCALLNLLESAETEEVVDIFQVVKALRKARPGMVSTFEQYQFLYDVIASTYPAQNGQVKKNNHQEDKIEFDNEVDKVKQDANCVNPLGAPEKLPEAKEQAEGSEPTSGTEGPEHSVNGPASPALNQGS
The assay can be described thus: not described; same paragraph: immunoprecipitation studies reveal a physical interaction.

B1: a-CD45-sc (membrane-bound anti-CD45 single chain antibody with CD8a/CD28 stalk and CD34 transmembrane region) (scFv)
scFv: QVQLVESGGGLVQPGGSLKLSCAASGFDFSRYWMSWVRQAPGKGLEWIGEINPTSSTINFTPSLKDKVFISRDNAKNTLYLQMSKVRSEDTALYYCARGNYYRYGDAMDYWGQGTSVTVSKISGGGGSGGGGSGGGGSGGGGSGGGGSSDIVLTQSPASLAVSLGQRATISCRASKSVSTSGYSYLHWYQQKPGQPPKLLIYLASNLESGVPARFSGSGSGTDFTLNIHPVEEEDAATYYCQHSRELPFTFGSGTKLEIKSSGSGSPTTTPAPRPPTPAPTIASQPLSLRPEACRPAAGGAVHTRGLDFAPRKIEVMYPPPYLDNEKSNGTIIHVKGKHLCPSPLFPGPSKPTLIALVTSGALLAVLGITGYFL
notes: The molecule was expressed on the surface of K562 target cells; also called anti-CD45-sc; ai-CD45-sc
B1: the binding result was “binds”.

B2: HCMV (Merlin strain; HHV5) protein UL11 (other)
chain: CIPVVGKIGTNVTLNAVDVLPPRDQVRWSYGPGGQGYMLCIFTGTSTTTFNNTRFNFSCLSNYSLLLINVTTQYSTTYRTMTSLDHWLHQRHNHGSRWTLDTCYNLTVNENGTFPTTTTKKPTTTTRTTTTTTQRTTTTRTTTTAKKTTISTTHHKHPSPKKSTTPNSHVEHHVGFEATAAETPLQPSPQHQHLATHALWVLAVVIVIIIIIIFYFRIPQKLWLLWQHDKHGIVLIPQTDL
notes: also called ULll
Regarding B2, the binding result is recorded as “binds”.
